Results from FireProtDB (doi:10.1093/protein/12.7.581).
Values joined by “and” are separate entries in the source; they are usually repeats but may differ in a detail not shown here. Equal values may be shown once.

B1: Alpha-lactalbumin, P00711 (parent)
chain: MMSFVSLLLVGILFHATQAEQLTKCEVFRELKDLKGYGGVSLPEWVCTTFHTSGYDTQAIVQNNDSTEYGLFQINNKIWCKDDQNPHSSNICNISCDKFLDDDLTDDIMCVKKILDKVGINYWLAHKALCSEKLDQWLCEKL

Variants of: B1
Conditions: Bos taurus; pH 7.4; Thermal; CD; Tris-HCl 20 mM; CaCl2 1 mM; reversible: yes(>95%); structure 1HFZ; whole UniProt chain shown

Variant: L129H
- change of melting temperature, mutant - wild type (higher = more stable): 6.3 °C
- ddG of mutation (higher = less stable): -1.39 kcal/mol
- unfolding enthalpy (van 't Hoff): 77.4 kcal/mol

Variant: L129E
- Tm: 55.1 °C and 56.2 °C
- change of melting temperature, mutant - wild type (higher = more stable): -1.1 °C
- ddG of mutation (higher = less stable): 0.19 kcal/mol
- unfolding enthalpy (van 't Hoff): 58.6 kcal/mol

Variant: L129R
- Tm: 58.1 °C and 56.2 °C
- change of melting temperature, mutant - wild type (higher = more stable): 1.9 °C
- ddG of mutation (higher = less stable): -0.43 kcal/mol
- unfolding enthalpy (van 't Hoff): 76.5 kcal/mol

Variant: Y122P
- Tm: 55.1 °C and 56.2 °C
- change of melting temperature, mutant - wild type (higher = more stable): -1.1 °C
- ddG of mutation (higher = less stable): 0.22 kcal/mol
- unfolding enthalpy (van 't Hoff): 62.1 kcal/mol

Variant: Y122A
- change of melting temperature, mutant - wild type (higher = more stable): -10.7 °C
- ddG of mutation (higher = less stable): 2.39 kcal/mol
- unfolding enthalpy (van 't Hoff): 64.3 kcal/mol

Variant: H126W
- change of melting temperature, mutant - wild type (higher = more stable): -8.7 °C
- ddG of mutation (higher = less stable): 1.72 kcal/mol
- unfolding enthalpy (van 't Hoff): 57.8 kcal/mol

Variant: H126A
- Tm: 52.1 °C and 56.2 °C
- change of melting temperature, mutant - wild type (higher = more stable): -4.1 °C
- ddG of mutation (higher = less stable): 0.79 kcal/mol
- unfolding enthalpy (van 't Hoff): 60.5 kcal/mol

Variant: H126Y
- Tm: 55.2 °C and 56.2 °C
- change of melting temperature, mutant - wild type (higher = more stable): -1 °C
- ddG of mutation (higher = less stable): 0.19 kcal/mol
- unfolding enthalpy (van 't Hoff): 62.9 kcal/mol

Variant: Q73A
- Tm: 54.3 °C and 56.2 °C
- change of melting temperature, mutant - wild type (higher = more stable): -1.9 °C
- ddG of mutation (higher = less stable): 0.41 kcal/mol
- unfolding enthalpy (van 't Hoff): 67.6 kcal/mol

Variant: W137H
- Tm: 52.9 °C and 56.2 °C
- change of melting temperature, mutant - wild type (higher = more stable): -3.3 °C
- ddG of mutation (higher = less stable): 0.6 kcal/mol
- unfolding enthalpy (van 't Hoff): 56.2 kcal/mol

Variant: W137Y
- change of melting temperature, mutant - wild type (higher = more stable): -5.4 °C
- ddG of mutation (higher = less stable): 1.17 kcal/mol
- unfolding enthalpy (van 't Hoff): 67.2 kcal/mol

Variant: H51Y
- Tm: 56.5 °C
- change of melting temperature, mutant - wild type (higher = more stable): 0.3 °C
- unfolding enthalpy (van 't Hoff): 73.6 kcal/mol

Variant: H51A
- change of melting temperature, mutant - wild type (higher = more stable): -11.6 °C
- ddG of mutation (higher = less stable): 2.13 kcal/mol
- unfolding enthalpy (van 't Hoff): 50.4 kcal/mol

Variant: Q136A
- Tm: 52.1 °C and 56.2 °C
- change of melting temperature, mutant - wild type (higher = more stable): -4.1 °C
- ddG of mutation (higher = less stable): 0.96 kcal/mol
- unfolding enthalpy (van 't Hoff): 73.4 kcal/mol

Variant: A125S
- change of melting temperature, mutant - wild type (higher = more stable): -6.1 °C
- ddG of mutation (higher = less stable): 1.05 kcal/mol
- unfolding enthalpy (van 't Hoff): 51.6 kcal/mol

Variant: K133N
- change of melting temperature, mutant - wild type (higher = more stable): 10.7 °C
- ddG of mutation (higher = less stable): -2.65 kcal/mol
- unfolding enthalpy (van 't Hoff): 91.3 kcal/mol

Variant: K133E
- Tm: 53 °C
- change of melting temperature, mutant - wild type (higher = more stable): -3.2 °C
- unfolding enthalpy (van 't Hoff): 62.9 kcal/mol

Variant: K133Q
- Tm: 53.5 °C and 56.2 °C
- change of melting temperature, mutant - wild type (higher = more stable): -2.7 °C
- ddG of mutation (higher = less stable): 0.6 kcal/mol
- unfolding enthalpy (van 't Hoff): 69.5 kcal/mol

Variant: W123Y
- Tm: 56.2 °C
- ddG of mutation (higher = less stable): 2.44 kcal/mol

Variant: V61N
- Tm: 55.1 °C
- change of melting temperature, mutant - wild type (higher = more stable): -1.1 °C
- unfolding enthalpy (van 't Hoff): 67.2 kcal/mol

Variant: V61A
- Tm: 51.7 °C and 56.2 °C
- change of melting temperature, mutant - wild type (higher = more stable): -4.5 °C
- ddG of mutation (higher = less stable): 0.93 kcal/mol
- unfolding enthalpy (van 't Hoff): 64.3 kcal/mol

Variant: V61G
- change of melting temperature, mutant - wild type (higher = more stable): -5.2 °C
- ddG of mutation (higher = less stable): 1.15 kcal/mol
- unfolding enthalpy (van 't Hoff): 68.6 kcal/mol

Variant: I78W
- Tm: 51.7 °C and 56.2 °C
- change of melting temperature, mutant - wild type (higher = more stable): -4.5 °C
- ddG of mutation (higher = less stable): 0.93 kcal/mol
- unfolding enthalpy (van 't Hoff): 65 kcal/mol
